Results taken from article PMC3233348 (2012).

B1: M98K amicyanin (protein)
chain: DKATIPSESPFAAAEVADGAIVVDIAKMKYETPELHVKVGDTVTWINREAMPHNVHFVAGVLGEAALKGPMKKKEQAYSLTFTEAGTYDYHCTPHPFMRGKVVVE

Tests used:
[1] = biological target: methylamine dehydrogenase (MADH) (Paracoccus denitrificans) (UniProt P22619); conditions: cited from earlier work
[2] = biological target: T1, methylamine dehydrogenase (MADH) (Paracoccus denitrificans, UniProt P22619); test: steady-state kinetics competitive inhibition
T1 chain 1: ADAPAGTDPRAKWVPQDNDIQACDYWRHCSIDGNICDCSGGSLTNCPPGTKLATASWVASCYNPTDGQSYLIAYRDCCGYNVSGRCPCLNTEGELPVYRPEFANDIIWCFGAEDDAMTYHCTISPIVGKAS
T1 chain 2: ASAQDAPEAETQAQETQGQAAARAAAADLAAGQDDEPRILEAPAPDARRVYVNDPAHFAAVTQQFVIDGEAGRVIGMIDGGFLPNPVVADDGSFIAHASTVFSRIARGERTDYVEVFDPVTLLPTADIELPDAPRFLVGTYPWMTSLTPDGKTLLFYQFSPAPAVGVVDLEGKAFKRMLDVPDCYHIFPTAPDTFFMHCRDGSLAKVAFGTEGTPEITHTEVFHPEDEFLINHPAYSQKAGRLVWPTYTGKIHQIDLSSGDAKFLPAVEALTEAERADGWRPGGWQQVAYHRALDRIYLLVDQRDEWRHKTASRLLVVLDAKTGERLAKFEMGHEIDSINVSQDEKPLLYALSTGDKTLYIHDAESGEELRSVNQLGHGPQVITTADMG

Molecule	Kd [1]	Ki [2]
amicyanin (from UniProt P22364)	5 µM	
B1		7.2 µM
